Patent publication US20210388087A1 (Chugai, published 2021)

T1: Human CD3eg linker (human)
T1 construct: single-chain construct; also called recombinant human CD3
T1 chain: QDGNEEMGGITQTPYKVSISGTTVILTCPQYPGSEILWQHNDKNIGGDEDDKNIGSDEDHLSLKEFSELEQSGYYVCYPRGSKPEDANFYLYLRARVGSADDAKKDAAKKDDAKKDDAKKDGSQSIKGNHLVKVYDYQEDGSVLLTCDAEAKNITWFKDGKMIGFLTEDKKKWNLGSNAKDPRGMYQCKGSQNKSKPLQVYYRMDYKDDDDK


Biological target: T1, Human CD3eg linker
Experiment: SPR, vs unmutated H183/L072

Row | Binder | fold change of affinity [fold]
1 | dBBDu183H P61D/dBBDu072L (antibody, name in Kabat numbering, V domains shown) VH: QVQLVESGGGLVQPGRSLRLSCAASGFTFSNAWMHWVRQAPGKGLEWVAQIKDKGNAYAAYYADSVKGRFTISRDDSKNSIYLQMNSLKTEDTAVYYCHYVHYASASTVLPAFGVDAWGQGTTVTVSS VL: DIVMTQSPLSLPVTPGEPASISCQASQELVHMNRNTYLHWYQQKPGQAPRLLIYKVSNRFPGVPDRFSGSGSGTDFTLKISRVEAEDVGVYYCAQGTSVPFTFGQGTKLEIK | 1.9
2 | dBBDu183H P61R/dBBDu072L (antibody, name in Kabat numbering, V domains shown) VH: QVQLVESGGGLVQPGRSLRLSCAASGFTFSNAWMHWVRQAPGKGLEWVAQIKDKGNAYAAYYARSVKGRFTISRDDSKNSIYLQMNSLKTEDTAVYYCHYVHYASASTVLPAFGVDAWGQGTTVTVSS VL: DIVMTQSPLSLPVTPGEPASISCQASQELVHMNRNTYLHWYQQKPGQAPRLLIYKVSNRFPGVPDRFSGSGSGTDFTLKISRVEAEDVGVYYCAQGTSVPFTFGQGTKLEIK | 1.6
3 | dBBDu183H P61G/dBBDu072L (antibody, name in Kabat numbering, V domains shown) VH: QVQLVESGGGLVQPGRSLRLSCAASGFTFSNAWMHWVRQAPGKGLEWVAQIKDKGNAYAAYYAGSVKGRFTISRDDSKNSIYLQMNSLKTEDTAVYYCHYVHYASASTVLPAFGVDAWGQGTTVTVSS VL: DIVMTQSPLSLPVTPGEPASISCQASQELVHMNRNTYLHWYQQKPGQAPRLLIYKVSNRFPGVPDRFSGSGSGTDFTLKISRVEAEDVGVYYCAQGTSVPFTFGQGTKLEIK | 1.5
4 | dBBDu183H P61H/dBBDu072L (antibody, name in Kabat numbering, V domains shown) VH: QVQLVESGGGLVQPGRSLRLSCAASGFTFSNAWMHWVRQAPGKGLEWVAQIKDKGNAYAAYYAHSVKGRFTISRDDSKNSIYLQMNSLKTEDTAVYYCHYVHYASASTVLPAFGVDAWGQGTTVTVSS VL: DIVMTQSPLSLPVTPGEPASISCQASQELVHMNRNTYLHWYQQKPGQAPRLLIYKVSNRFPGVPDRFSGSGSGTDFTLKISRVEAEDVGVYYCAQGTSVPFTFGQGTKLEIK | 1.8
5 | dBBDu183H P61T/dBBDu072L (antibody, name in Kabat numbering, V domains shown) VH: QVQLVESGGGLVQPGRSLRLSCAASGFTFSNAWMHWVRQAPGKGLEWVAQIKDKGNAYAAYYATSVKGRFTISRDDSKNSIYLQMNSLKTEDTAVYYCHYVHYASASTVLPAFGVDAWGQGTTVTVSS VL: DIVMTQSPLSLPVTPGEPASISCQASQELVHMNRNTYLHWYQQKPGQAPRLLIYKVSNRFPGVPDRFSGSGSGTDFTLKISRVEAEDVGVYYCAQGTSVPFTFGQGTKLEIK | 1
6 | dBBDu183H P61Y/dBBDu072L (antibody, name in Kabat numbering, V domains shown) VH: QVQLVESGGGLVQPGRSLRLSCAASGFTFSNAWMHWVRQAPGKGLEWVAQIKDKGNAYAAYYAYSVKGRFTISRDDSKNSIYLQMNSLKTEDTAVYYCHYVHYASASTVLPAFGVDAWGQGTTVTVSS VL: DIVMTQSPLSLPVTPGEPASISCQASQELVHMNRNTYLHWYQQKPGQAPRLLIYKVSNRFPGVPDRFSGSGSGTDFTLKISRVEAEDVGVYYCAQGTSVPFTFGQGTKLEIK | 1.9
7 | dBBDu183H P61N/dBBDu072L (antibody, name in Kabat numbering, V domains shown) VH: QVQLVESGGGLVQPGRSLRLSCAASGFTFSNAWMHWVRQAPGKGLEWVAQIKDKGNAYAAYYANSVKGRFTISRDDSKNSIYLQMNSLKTEDTAVYYCHYVHYASASTVLPAFGVDAWGQGTTVTVSS VL: DIVMTQSPLSLPVTPGEPASISCQASQELVHMNRNTYLHWYQQKPGQAPRLLIYKVSNRFPGVPDRFSGSGSGTDFTLKISRVEAEDVGVYYCAQGTSVPFTFGQGTKLEIK | 1.5
8 | dBBDu183H P61E/dBBDu072L (antibody, name in Kabat numbering, V domains shown) VH: QVQLVESGGGLVQPGRSLRLSCAASGFTFSNAWMHWVRQAPGKGLEWVAQIKDKGNAYAAYYAESVKGRFTISRDDSKNSIYLQMNSLKTEDTAVYYCHYVHYASASTVLPAFGVDAWGQGTTVTVSS VL: DIVMTQSPLSLPVTPGEPASISCQASQELVHMNRNTYLHWYQQKPGQAPRLLIYKVSNRFPGVPDRFSGSGSGTDFTLKISRVEAEDVGVYYCAQGTSVPFTFGQGTKLEIK | 1.8
9 | dBBDu183H P61W/dBBDu072L (antibody, name in Kabat numbering, V domains shown) VH: QVQLVESGGGLVQPGRSLRLSCAASGFTFSNAWMHWVRQAPGKGLEWVAQIKDKGNAYAAYYAWSVKGRFTISRDDSKNSIYLQMNSLKTEDTAVYYCHYVHYASASTVLPAFGVDAWGQGTTVTVSS VL: DIVMTQSPLSLPVTPGEPASISCQASQELVHMNRNTYLHWYQQKPGQAPRLLIYKVSNRFPGVPDRFSGSGSGTDFTLKISRVEAEDVGVYYCAQGTSVPFTFGQGTKLEIK | 1.8
10 | dBBDu183H P61Q/dBBDu072L (antibody, name in Kabat numbering, V domains shown) VH: QVQLVESGGGLVQPGRSLRLSCAASGFTFSNAWMHWVRQAPGKGLEWVAQIKDKGNAYAAYYAQSVKGRFTISRDDSKNSIYLQMNSLKTEDTAVYYCHYVHYASASTVLPAFGVDAWGQGTTVTVSS VL: DIVMTQSPLSLPVTPGEPASISCQASQELVHMNRNTYLHWYQQKPGQAPRLLIYKVSNRFPGVPDRFSGSGSGTDFTLKISRVEAEDVGVYYCAQGTSVPFTFGQGTKLEIK | 1.8
11 | dBBDu183H P61F/dBBDu072L (antibody, name in Kabat numbering, V domains shown) VH: QVQLVESGGGLVQPGRSLRLSCAASGFTFSNAWMHWVRQAPGKGLEWVAQIKDKGNAYAAYYAFSVKGRFTISRDDSKNSIYLQMNSLKTEDTAVYYCHYVHYASASTVLPAFGVDAWGQGTTVTVSS VL: DIVMTQSPLSLPVTPGEPASISCQASQELVHMNRNTYLHWYQQKPGQAPRLLIYKVSNRFPGVPDRFSGSGSGTDFTLKISRVEAEDVGVYYCAQGTSVPFTFGQGTKLEIK | 1.8
12 | dBBDu183H P61K/dBBDu072L (antibody, name in Kabat numbering, V domains shown) VH: QVQLVESGGGLVQPGRSLRLSCAASGFTFSNAWMHWVRQAPGKGLEWVAQIKDKGNAYAAYYAKSVKGRFTISRDDSKNSIYLQMNSLKTEDTAVYYCHYVHYASASTVLPAFGVDAWGQGTTVTVSS VL: DIVMTQSPLSLPVTPGEPASISCQASQELVHMNRNTYLHWYQQKPGQAPRLLIYKVSNRFPGVPDRFSGSGSGTDFTLKISRVEAEDVGVYYCAQGTSVPFTFGQGTKLEIK | 1.7
13 | dBBDu183H P61S/dBBDu072L (antibody, name in Kabat numbering, V domains shown) VH: QVQLVESGGGLVQPGRSLRLSCAASGFTFSNAWMHWVRQAPGKGLEWVAQIKDKGNAYAAYYASSVKGRFTISRDDSKNSIYLQMNSLKTEDTAVYYCHYVHYASASTVLPAFGVDAWGQGTTVTVSS VL: DIVMTQSPLSLPVTPGEPASISCQASQELVHMNRNTYLHWYQQKPGQAPRLLIYKVSNRFPGVPDRFSGSGSGTDFTLKISRVEAEDVGVYYCAQGTSVPFTFGQGTKLEIK | 1.3

More lines, now with the values ahead:

Row | fold change of affinity [fold] | Binder
14 | 0.7 | dBBDu183H P100eD/dBBDu072L (antibody, name in Kabat numbering, V domains shown) VH: QVQLVESGGGLVQPGRSLRLSCAASGFTFSNAWMHWVRQAPGKGLEWVAQIKDKGNAYAAYYAPSVKGRFTISRDDSKNSIYLQMNSLKTEDTAVYYCHYVHYASASTVLDAFGVDAWGQGTTVTVSS VL: DIVMTQSPLSLPVTPGEPASISCQASQELVHMNRNTYLHWYQQKPGQAPRLLIYKVSNRFPGVPDRFSGSGSGTDFTLKISRVEAEDVGVYYCAQGTSVPFTFGQGTKLEIK
15 | 1.6 | dBBDu183H P100eG/dBBDu072L (antibody, name in Kabat numbering, V domains shown) VH: QVQLVESGGGLVQPGRSLRLSCAASGFTFSNAWMHWVRQAPGKGLEWVAQIKDKGNAYAAYYAPSVKGRFTISRDDSKNSIYLQMNSLKTEDTAVYYCHYVHYASASTVLGAFGVDAWGQGTTVTVSS VL: DIVMTQSPLSLPVTPGEPASISCQASQELVHMNRNTYLHWYQQKPGQAPRLLIYKVSNRFPGVPDRFSGSGSGTDFTLKISRVEAEDVGVYYCAQGTSVPFTFGQGTKLEIK
16 | 1.5 | dBBDu183H P100eH/dBBDu072L (antibody, name in Kabat numbering, V domains shown) VH: QVQLVESGGGLVQPGRSLRLSCAASGFTFSNAWMHWVRQAPGKGLEWVAQIKDKGNAYAAYYAPSVKGRFTISRDDSKNSIYLQMNSLKTEDTAVYYCHYVHYASASTVLHAFGVDAWGQGTTVTVSS VL: DIVMTQSPLSLPVTPGEPASISCQASQELVHMNRNTYLHWYQQKPGQAPRLLIYKVSNRFPGVPDRFSGSGSGTDFTLKISRVEAEDVGVYYCAQGTSVPFTFGQGTKLEIK
17 | 1 | dBBDu183H P100eE/dBBDu072L (antibody, name in Kabat numbering, V domains shown) VH: QVQLVESGGGLVQPGRSLRLSCAASGFTFSNAWMHWVRQAPGKGLEWVAQIKDKGNAYAAYYAPSVKGRFTISRDDSKNSIYLQMNSLKTEDTAVYYCHYVHYASASTVLEAFGVDAWGQGTTVTVSS VL: DIVMTQSPLSLPVTPGEPASISCQASQELVHMNRNTYLHWYQQKPGQAPRLLIYKVSNRFPGVPDRFSGSGSGTDFTLKISRVEAEDVGVYYCAQGTSVPFTFGQGTKLEIK
18 | 2.1 | dBBDu183H P100eK/dBBDu072L (antibody, name in Kabat numbering, V domains shown) VH: QVQLVESGGGLVQPGRSLRLSCAASGFTFSNAWMHWVRQAPGKGLEWVAQIKDKGNAYAAYYAPSVKGRFTISRDDSKNSIYLQMNSLKTEDTAVYYCHYVHYASASTVLKAFGVDAWGQGTTVTVSS VL: DIVMTQSPLSLPVTPGEPASISCQASQELVHMNRNTYLHWYQQKPGQAPRLLIYKVSNRFPGVPDRFSGSGSGTDFTLKISRVEAEDVGVYYCAQGTSVPFTFGQGTKLEIK
19 | 1.3 | dBBDu183H P100eN/dBBDu072L (antibody, name in Kabat numbering, V domains shown) VH: QVQLVESGGGLVQPGRSLRLSCAASGFTFSNAWMHWVRQAPGKGLEWVAQIKDKGNAYAAYYAPSVKGRFTISRDDSKNSIYLQMNSLKTEDTAVYYCHYVHYASASTVLNAFGVDAWGQGTTVTVSS VL: DIVMTQSPLSLPVTPGEPASISCQASQELVHMNRNTYLHWYQQKPGQAPRLLIYKVSNRFPGVPDRFSGSGSGTDFTLKISRVEAEDVGVYYCAQGTSVPFTFGQGTKLEIK
20 | 1.9 | dBBDu183H P100eF/dBBDu072L (antibody, name in Kabat numbering, V domains shown) VH: QVQLVESGGGLVQPGRSLRLSCAASGFTFSNAWMHWVRQAPGKGLEWVAQIKDKGNAYAAYYAPSVKGRFTISRDDSKNSIYLQMNSLKTEDTAVYYCHYVHYASASTVLFAFGVDAWGQGTTVTVSS VL: DIVMTQSPLSLPVTPGEPASISCQASQELVHMNRNTYLHWYQQKPGQAPRLLIYKVSNRFPGVPDRFSGSGSGTDFTLKISRVEAEDVGVYYCAQGTSVPFTFGQGTKLEIK
